Where a chain is given by its changes, count along the chain named. One block for each binder: values may come before it.
Assays:
human HGF [1] = target: T1, human HGF (human, UniProt P14210 32-728); test: ELISA; species of HGF not stated
T1 construct: also called hepatocyte growth factor

human HGF [2] = target: T1, human HGF; test: ELISA, EC50 comparison
human VEGF-A [3] = target: T2, human VEGF-A (human, UniProt P15692-4 27-191, limits assumed); test: ELISA, EC50 comparison
T2 construct: Recombinant, bought or produced in CHO or Pichia pastoris; also called hVEGF-A
T2 sequence (P15692 other isoform, or with tags, fused parts or gaps limits assumed): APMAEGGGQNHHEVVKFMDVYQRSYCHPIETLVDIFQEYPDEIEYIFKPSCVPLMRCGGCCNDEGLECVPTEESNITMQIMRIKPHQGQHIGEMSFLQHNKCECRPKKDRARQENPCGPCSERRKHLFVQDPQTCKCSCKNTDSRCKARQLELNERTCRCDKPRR

human VEGF-A [4] = target: T2, human VEGF-A; test: ELISA; species of VEGF-A not stated
human VEGF-A [5] = target: T2, human VEGF-A; test: VEGF-A Quantikine competition ELISA; competitor: immobilised anti-VEGF-A monoclonal antibody
From the text: Such assays are well known to the person skilled in the art. For designed ankyrin repeat domains with binding specificity to VEGF-A, a quantitative sandwich enzyme immunoassay technique was used according to the manufacturer (VEGF-A Quantikine kit DVE00, R&D Systems). A monoclonal antibody specific for VEGF-A was pre-coated onto a microplate. VEGF-A standards and mixtures of VEGF-A (20 pM) and Protein #18, #19, or #20 at varying concentrations were applied to the wells and any free VEGF-A present (i.e. not bound to the designed ankyrin repeat domain) is bound by the immobilized antibody. After washing away any unbound substances, an enzyme-linked polyclonal antibody specific for VEGF-A is added to the wells. Following a wash to remove any unbound antibody-enzyme reagent, a substrate solution is added to the wells and color develops in proportion to the amount of VEGF-A bound in the initial step. The color development is stopped and the intensity of the color is measured. […] IC₅₀ values were calculated from such titration curves obtained as described above using Graph Pad Prism software and standard procedures known to the person skilled in the art. For designed ankyrin repeat domains with binding specificity to HGF, a cMet receptor competition assay was performed. For that purpose, 5 nM of human cMet receptor in PBS were immobilized on Maxisorp plates overnight at 4° C. After washing with PBS 0.05% TWEEN 20, the plate was blocked for 2 h with shaking at 300 rpm using PBS containing 0.05% TWEEN 20 and 0.25% Casein at RT. A constant concentration of 5 nM human HGF was pre-incubated for 30 min at RT with a 1000 nM-1 pM of Proteins #23, #26, #28, and #29 (1:4 dilution series each) on a dilution plate in PBS 0.05% TWEEN 20. After washing of the ELISA plate with PBS 0.05% TWEEN, pre-incubated samples were transferred to the ELISA plate and plate was incubated for 2 h at RT with shaking at 300 rpm. After washing with PBS 0.25% TWEEN, 200 ng/ml anti human HGF antibody was added for 1 h at RT with shaking at 300 rpm. […]

human serum albumin = target: T3, human serum albumin (human, UniProt P02768 25-609); test: ELISA, immobilised human serum albumin
T3 construct: For SEC-MALS purified from CSL Behring 20% solution; also called HSA; SA (human)
T3 sequence (P02768 25-609 limits assumed): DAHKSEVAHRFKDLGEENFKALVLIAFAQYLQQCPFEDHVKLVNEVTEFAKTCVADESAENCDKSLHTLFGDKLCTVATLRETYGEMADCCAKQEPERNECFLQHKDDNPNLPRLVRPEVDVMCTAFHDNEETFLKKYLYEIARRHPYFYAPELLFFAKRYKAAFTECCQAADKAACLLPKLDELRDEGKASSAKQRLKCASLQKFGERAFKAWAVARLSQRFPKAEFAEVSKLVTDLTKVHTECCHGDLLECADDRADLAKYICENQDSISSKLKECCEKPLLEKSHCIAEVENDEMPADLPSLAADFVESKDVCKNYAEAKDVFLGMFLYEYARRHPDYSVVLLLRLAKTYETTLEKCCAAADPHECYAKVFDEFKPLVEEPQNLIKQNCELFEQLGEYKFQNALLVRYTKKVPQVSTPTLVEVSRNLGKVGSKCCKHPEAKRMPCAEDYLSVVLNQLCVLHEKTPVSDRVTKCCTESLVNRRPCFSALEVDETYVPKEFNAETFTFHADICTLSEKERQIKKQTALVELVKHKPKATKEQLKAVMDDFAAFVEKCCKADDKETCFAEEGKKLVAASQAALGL
Procedure: 100 μl or 50 μl of 20 nM target (VEGF-A, HGF, or serum albumin) in PBS per well were immobilized in a Maxisorp plate (Nunc, Denmark) overnight at 4° C. After washing 5 times with 300 μl PBST (PBS supplemented with 0.1% Tween 20), the wells were blocked with 300 μl PBST-C (PBST supplemented with 0.25% casein) for 2 h at room temperature with shaking at 450 rpm on a Titramax 1000 shaker (Heidolph, Germany). […] After washing 5 times as described above, bound anti-designed ankyrin repeat domain antibody was detected using 100 μl or 50 μl/well goat anti-rabbit IgG-HRP conjugate in PBST-C for 1 h at room temperature with shaking at 450 rpm. After washing 5 times as described above, the ELISA was then developed using 100 μl BM soluble blue POD substrate (Roche, Switzerland), diluted 1:4 in water. The reaction was stopped after 5 min using 100 μl 1 M H₂SO₄. The OD (OD 450 nm-OD 620 nm) was then recorded.
Cynomolgus monkey VEGF-A is identical to human VEGF-A and was thus not tested separately.

human HGF [6] = target: T1, human HGF; test: cMet receptor competition ELISA; 5 nM human HGF, immobilised human cMet
From the text: Such assays are well known to the person skilled in the art. For designed ankyrin repeat domains with binding specificity to VEGF-A, a quantitative sandwich enzyme immunoassay technique was used according to the manufacturer (VEGF-A Quantikine kit DVE00, R&D Systems). A monoclonal antibody specific for VEGF-A was pre-coated onto a microplate. VEGF-A standards and mixtures of VEGF-A (20 pM) and Protein #18, #19, or #20 at varying concentrations were applied to the wells and any free VEGF-A present (i.e. not bound to the designed ankyrin repeat domain) is bound by the immobilized antibody. After washing away any unbound substances, an enzyme-linked polyclonal antibody specific for VEGF-A is added to the wells. Following a wash to remove any unbound antibody-enzyme reagent, a substrate solution is added to the wells and color develops in proportion to the amount of VEGF-A bound in the initial step. The color development is stopped and the intensity of the color is measured. […] IC₅₀ values were calculated from such titration curves obtained as described above using Graph Pad Prism software and standard procedures known to the person skilled in the art. For designed ankyrin repeat domains with binding specificity to HGF, a cMet receptor competition assay was performed. For that purpose, 5 nM of human cMet receptor in PBS were immobilized on Maxisorp plates overnight at 4° C. After washing with PBS 0.05% TWEEN 20, the plate was blocked for 2 h with shaking at 300 rpm using PBS containing 0.05% TWEEN 20 and 0.25% Casein at RT. A constant concentration of 5 nM human HGF was pre-incubated for 30 min at RT with a 1000 nM-1 pM of Proteins #23, #26, #28, and #29 (1:4 dilution series each) on a dilution plate in PBS 0.05% TWEEN 20. After washing of the ELISA plate with PBS 0.05% TWEEN, pre-incubated samples were transferred to the ELISA plate and plate was incubated for 2 h at RT with shaking at 300 rpm. After washing with PBS 0.25% TWEEN, 200 ng/ml anti human HGF antibody was added for 1 h at RT with shaking at 300 rpm. After washing with PBS 0.05% TWEEN, 100 ng/ml HRP conjugated polyclonal anti HGF species antibody was added for 30 min at RT with shaking at 300 rpm. Detection was using 1:3 diluted BM blue POD (Roche).

human HGF [7] = target: T1, human HGF; test: SPR (ProteOn)
Procedure: SPR was measured using a ProteOn instrument (BioRad) and measurement was performed according standard procedures known to the person skilled in the art.

T1 sequence (P14210 32-728 limits assumed): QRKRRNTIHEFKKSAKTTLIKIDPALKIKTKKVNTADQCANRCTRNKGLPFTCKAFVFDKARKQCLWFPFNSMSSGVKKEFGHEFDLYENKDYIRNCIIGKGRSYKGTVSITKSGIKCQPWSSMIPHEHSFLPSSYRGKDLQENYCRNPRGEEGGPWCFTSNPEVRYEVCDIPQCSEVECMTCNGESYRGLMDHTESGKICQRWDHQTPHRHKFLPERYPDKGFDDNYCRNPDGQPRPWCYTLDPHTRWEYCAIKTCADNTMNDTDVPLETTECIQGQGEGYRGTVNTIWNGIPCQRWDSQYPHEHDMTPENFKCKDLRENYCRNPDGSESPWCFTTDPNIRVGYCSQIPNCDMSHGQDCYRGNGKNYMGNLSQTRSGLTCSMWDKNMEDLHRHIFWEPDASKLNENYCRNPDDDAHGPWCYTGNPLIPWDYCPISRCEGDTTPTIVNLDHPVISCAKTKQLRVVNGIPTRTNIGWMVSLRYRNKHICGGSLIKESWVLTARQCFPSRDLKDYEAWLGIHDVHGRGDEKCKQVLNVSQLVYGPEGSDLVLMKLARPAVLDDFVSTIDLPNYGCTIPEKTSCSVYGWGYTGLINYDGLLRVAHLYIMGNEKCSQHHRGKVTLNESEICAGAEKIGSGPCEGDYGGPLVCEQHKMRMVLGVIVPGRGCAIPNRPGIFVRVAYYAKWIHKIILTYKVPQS

B2: Protein #20 (designed binder)
chain: MRGSHHHHHHGSDLDKKLLEAARAGQDDEVRILLKAGADVNAKDSTGWTPLHLAAPWGHPEIVEVLLKAGADVNAKDFQGWTPLHLAAAVGHLEIVEVLLKAGADVNAQDKSGKTPADLAADAGHEDIAEVLQKAA
IC50 (human VEGF-A [5]): 0.004 nM

B3: Protein #18 (designed binder)
chain: B2 chain with V90A
IC50 (human VEGF-A [5]): 0.013 nM

B4: Protein #19 (designed binder)
chain: B2 chain with D15G, V90A
IC50 (human VEGF-A [5]): 0.013 nM

B9: Protein #23 (designed binder)
chain: MRGSHHHHHHGSDLGKKLLEAARAGQDDEVRILMANGADVNAKDRFGDTPLHLAADIGHLKIVEVLLKHGADVNAEDWFGNTPLHLAASMGHLEIVEVLLKYGADVNAMDDYGNTPLHLAANTGHLEIVEVLLKHGADVNAQDKFGKTAFDISIDNGNEDLAEILQKAA
IC50 (human HGF [6]): 0.915 nM
Kd (human HGF [7]): 0.016 nM

B10: Protein #28 (designed binder)
chain: MRGSHHHHHHGSDLGMKLLEAARAGQDDEVRILMANGADVNAHDTWGLTPLHLAAFHGHQEIVEVLLKHGADVNAQDFYGKTPLHLAALRGHLEIVEVLLKYGADVNAQDQFGKTAFDISIDNGNEDLAEILQKAA
IC50 (human HGF [6]): 0.955 nM
Kd (human HGF [7]): 0.026 nM

B12: Protein #26 (designed binder)
chain: MRGSHHHHHHGSDLGKKLLEAARAGQDDEVRILLKAGADVNAKDRYGDTPLHLAADIGHLEIVEVLLKAGADVNAEDYFGNTPLHLAASYGHLEIVEVLLKAGADVNAKDDYGNTPLHLAANTGHLEIVEVLLKAGADVNAQDKSGKTPADLAADAGHEDIAEVLQKAA
IC50 (human HGF [6]): 0.623 nM
Kd (human HGF [7]): 0.051 nM

Now from value to binder:

EC50 (human HGF [1]): 0.117 nM
factor more potent (EC50) than Protein #71 (human HGF [2]): 1.3 fold
factor more potent (EC50) than Protein #71 (human VEGF-A [3]): 2 fold
EC50 (human VEGF-A [4]): 0.102 nM
B1: Protein #69 (designed binder)
chain: MRGSHHHHHHGSDLGKKLLEAARAGQDDEVRILMANGADVNAKDYFSHTPLHLAARNGHLKIVEVLLKAGADVNAKDFAGKTPLHLAANDGHLEIVEVLLKHGADVNAQDIFGKTPADIAADAGHEDIAEVLQKLGSPTPTPTTPTPTPTTPTPTPTGSRSDLDKKLLEAARAGQDDEVRILLKAGADVNAKDYLGWTPLHLAAHEGHLEIVEVLLKAGADVNAKDVSGYTPLHLAAADGHLEIVEVLLKAGADVNAKDNTGWTPLHLSADLGHLEIVEVLLKAGADVNAQDKFGKTAFDISIDNGNEDLAEILQKLGSPTPTPTTPTPTPTTPTPTPTGSRSDLGKKLLEAARAGQDDEVRILLKAGADVNAKDRYGDTPLHLAADAGHLKIVEVLLKAGADVNAEDYFGNTPLHLAASAGHLEIVEVLLKAGADVNAKDDAGNTPLHLAANTGHLKIVEVLLKAGADVNAQDKSGKTPADLAADAGHEDIAEVLQKLN

EC50 (human HGF [1]): 0.107 nM
factor more potent (EC50) than Protein #69 (human HGF [2]): 1.1 fold
factor more potent (EC50) than Protein #69 (human VEGF-A [3]): 1.4 fold
EC50 (human VEGF-A [4]): 0.073 nM
B5: Protein #107 (designed binder)
chain: MRGSHHHHHHGSDLGKKLLEAARAGQDDEVRELLKAGADVNAKDYFSHTPLHLAARNGHLKIVEVLLKAGADVNAKDFAGKTPLHLAANDGHLEIVEVLLKAGADVNAQDIFGKTPADIAADAGHEDIAEVLQKAAGSPTPTPTTPTPTPTTPTPTPTGSDLDKKLLEAARAGQDDEVRILLKAGADVNAKDSTGWTPLHLAAPWGHPEIVEVLLKAGADVNAKDYQGWTPLHLAAAVGHLEIVEVLLKAGADVNAQDKSGKTPADLAADAGHEDIAEVLQKAAGSPTPTPTTPTPTPTTPTPTPTGSDLGKKLLEAARAGQDDEVRILLKAGADVNAKDRYGDTPLHLAADAGHLKIVEVLLKAGADVNAEDYFGNTPLHLAASAGHLEIVEVLLKAGADVNAKDDAGNTPLHLAANTGHLKIVEVLLKAGADVNAQDKSGKTPADLAADAGHEDIAEVLQKAAGSPTPTPTTPTPTPTTPTPTPTGSDLGKKLLEAARAGQDDEVRELLKAGADVNAKDYFSHTPLHLAARNGHLKIVEVLLKAGADVNAKDFAGKTPLHLAANDGHLEIVEVLLKAGADVNAQDIFGKTPADIAADAGHEDIAEVLQKAA

EC50 (human serum albumin): 0.225 nM
B6: Protein #60 (designed binder)
chain: MRGSHHHHHHGSDLGKKLLEAARAGQDDEVRELLKAGADVNAKDYFSHTPLHLAARNGHLKIVEVLLKAGADVNAKDFAGKTPLHLAANEGHLEIVEVLLKAGADVNAQDIFGKTPADIAADAGHEDIAEVLQKAAGSPTPTPTTPTPTPTTPTPTPTGSDLGKKLLEAARAGQDDEVRILLKAGADVNAKDRYGDTPLHLAADIGHLEIVEVLLKAGADVNAEDYFGNTPLHLAASYGHLEIVEVLLKAGADVNAKDDYGNTPLHLAANTGHLEIVEVLLKAGADVNAQDKSGKTPADLAADAGHEDIAEVLQKAA

IC50 (human HGF [6]): 1.36 nM
Kd (human HGF [7]): 0.025 nM
B7: Protein #29 (designed binder)
chain: MRGSHHHHHHGSDLGKKLLEAARAGQDDEVRILMANGADVNAKYEDGLTPLHLAAFYGHLEIVEVLLKHGADVNATDAWGHTPLHLAAYYGHLEIVEVLLKYGADVNTHDKEGMTALHLAALTGHLEIVEVLLKNGADVNAQDKFGKTAFDISIDNGNEDLAEILQKAA

EC50 (human HGF [1]): 0.179 nM
EC50 (human VEGF-A [4]): 0.205 nM
B8: Protein #71 (designed binder)
chain: MRGSHHHHHHGSDLGKKLLEAARAGQDDEVRILMANGADVNAKDYFSHTPLHLAARNGHLKIVEVLLKAGADVNAKDFAGKTPLHLAANDGHLEIVEVLLKHGADVNAQDIFGKTPADIAADAGHEDIAEVLQKLGGGGSGGGGSGGGGSGGGGSRSDLDKKLLEAARAGQDDEVRILLKAGADVNAKDYLGWTPLHLAAHEGHLEIVEVLLKAGADVNAKDVSGYTPLHLAAADGHLEIVEVLLKAGADVNAKDNTGWTPLHLSADLGHLEIVEVLLKAGADVNAQDKFGKTAFDISIDNGNEDLAEILQKLGGGGSGGGGSGGGGSGGGGSRSDLGKKLLEAARAGQDDEVRILLKAGADVNAKDRYGDTPLHLAADAGHLKIVEVLLKAGADVNAEDYFGNTPLHLAASAGHLEIVEVLLKAGADVNAKDDAGNTPLHLAANTGHLKIVEVLLKAGADVNAQDKSGKTPADLAADAGHEDIAEVLQKLN

EC50 (human serum albumin): 0.322 nM
B11: Protein #61 (designed binder)
chain: MRGSHHHHHHGSDLGKKLLEAARAGQDDEVRELLKAGADVNAKDYFSHTPLHLAARNGHLKIVEVLLKAGADVNAKDFAGKTPLHLAANEGHLEIVEVLLKAGADVNAQDIFGKTPADIAADAGHEDIAEVLQKAAGSPTPTPTTPTPTPTTPTPTPTGSDLDKKLLEAARAGQDDEVRILLKAGADVNAKDSTGWTPLHLAAPWGHPEIVEVLLKAGADVNAKDFQGWTPLHLAAAAGHLEIVEVLLKAGADVNAQDKSGKTPADLAADAGHEDIAEVLQKAA
